Laboratory results taken from paper PMC8415449.

Molecular target: MtrAB complex (Shewanella oneidensis MR-1)
Experiment: AUC; sedimentation equilibrium (SE-AUC), 20°C, 8,000, 10,000 and 12,000 rpm, absorbance at 410 nm; 50 mM sodium phosphate, 50 mM NaCl, 0.1% (v/v) Triton X-100, pH 7.5; 0.4 uM single proteins, 0.25 uM + 0.25 uM mixture; fits to a single non-interacting species

Ru-MtrC (soluble Y657C MtrC labelled at Cys657 with a Ru(II)-bipyridine dye) (from UniProt Q8EG34 26-671) (natural protein)
stoichiometry N (Ru-MtrC per MtrAB): 1
